Test system: Escherichia coli TOP10
Test: shrunken log2 fold change of peptide-encoding DNA abundance (4.5 h post-induction vs induction); higher = less antimicrobial activity (less host growth inhibition)
Conditions: time post-induction: 4.5 h; library: site-saturation at positions 5, 18, 19, 20
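Further: peptides expressed intracellularly from a pBAD plasmid library in pooled LB shake-flask culture, induced with 0.3% L-arabinose, DNA abundance read by NGS, three biological replicates, DESeq2 with apeglm shrinkage.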

| Sequence | shrunken log2 fold change |
| --- | --- |
| RRIRTRPPRLPRPRPRPAQWPRP | 0.0699 |
| RRIRHRPPRLPRPRPRPVVHPRP | -0.115 |
| RRIRVRPPRLPRPRPRPEIDPRP | 0.135 |
| RRIRQRPPRLPRPRPRPVVMPRP | 0.0928 |
| RRIRVRPPRLPRPRPRPNLCPRP | -0.292 |
| RRIRARPPRLPRPRPRPNDIPRP | -0.448 |
| RRIRARPPRLPRPRPRPNGAPRP | 0.0281 |
| RRIRRRPPRLPRPRPRPWIDPRP | -0.0585 |
| RRIRNRPPRLPRPRPRPDEDPRP | 0.421 |
| RRIRVRPPRLPRPRPRPYQFPRP | -0.0508 |
| RRIRLRPPRLPRPRPRPEDVPRP | -0.0818 |
| RRIRKRPPRLPRPRPRPFVTPRP | -0.0435 |
| RRIRVRPPRLPRPRPRPRKAPRP | -0.124 |
| RRIRHRPPRLPRPRPRPANSPRP | -0.271 |
| RRIRTRPPRLPRPRPRPPFRPRP | 0.693 |
| RRIRPRPPRLPRPRPRPGYVPRP | -0.401 |
| RRIRERPPRLPRPRPRPANYPRP | -0.0934 |
| RRIRERPPRLPRPRPRPCLQPRP | -0.218 |
| RRIRVRPPRLPRPRPRPRKSPRP | 0.337 |
| RRIRSRPPRLPRPRPRPYWPPRP | -0.642 |
| RRIRWRPPRLPRPRPRPVNCPRP | 0.0456 |
| RRIRVRPPRLPRPRPRPIKGPRP | -0.155 |
| RRIRARPPRLPRPRPRPTVCPRP | 0.505 |
| RRIRNRPPRLPRPRPRPICSPRP | -0.0669 |
| RRIRRRPPRLPRPRPRPKRLPRP | 0.191 |

| Sequence | shrunken log2 fold change |
| --- | --- |
| RRIRARPPRLPRPRPRPKHTPRP | 0.264 |
| RRIRERPPRLPRPRPRPYVAPRP | -0.72 |
| RRIRERPPRLPRPRPRPRSNPRP | -0.0433 |
| RRIRFRPPRLPRPRPRPGSIPRP | -0.235 |
| RRIRKRPPRLPRPRPRPSRNPRP | -0.0207 |
| RRIRCRPPRLPRPRPRPKQKPRP | 0.0322 |
| RRIRSRPPRLPRPRPRPFRSPRP | 0.00887 |
| RRIRKRPPRLPRPRPRPWKFPRP | 0.0297 |
| RRIRFRPPRLPRPRPRPICMPRP | -0.214 |
| RRIRGRPPRLPRPRPRPPKKPRP | 1.03 |
| RRIRQRPPRLPRPRPRPCGWPRP | 0.502 |
| RRIRLRPPRLPRPRPRPFCKPRP | -0.101 |
| RRIRGRPPRLPRPRPRPKKEPRP | 0.042 |
| RRIRSRPPRLPRPRPRPMKHPRP | -0.212 |
| RRIRDRPPRLPRPRPRPYWIPRP | -0.296 |
| RRIRGRPPRLPRPRPRPEIQPRP | 0.769 |
| RRIRTRPPRLPRPRPRPSHAPRP | -0.345 |
| RRIRQRPPRLPRPRPRPNFRPRP | -0.0457 |
| RRIRFRPPRLPRPRPRPWFEPRP | -0.0653 |
| RRIRGRPPRLPRPRPRPDYWPRP | -0.027 |
| RRIRSRPPRLPRPRPRPPGDPRP | 0.344 |
| RRIRRRPPRLPRPRPRPARVPRP | 0.349 |
| RRIRGRPPRLPRPRPRPDHIPRP | 0.199 |
| RRIRARPPRLPRPRPRPRMPPRP | 0.251 |
| RRIRNRPPRLPRPRPRPHIYPRP | -0.0215 |

| Sequence | shrunken log2 fold change |
| --- | --- |
| RRIRWRPPRLPRPRPRPLGDPRP | 0.598 |
| RRIRQRPPRLPRPRPRPHSCPRP | -0.194 |
| RRIRYRPPRLPRPRPRPPHQPRP | 0.378 |
| RRIRVRPPRLPRPRPRPWSNPRP | -0.0426 |
| RRIRTRPPRLPRPRPRPPGMPRP | 0.424 |
| RRIRHRPPRLPRPRPRPGFSPRP | -0.236 |
| RRIRARPPRLPRPRPRPYAQPRP | -0.181 |
| RRIRSRPPRLPRPRPRPESHPRP | -0.44 |
| RRIRPRPPRLPRPRPRPFMAPRP | -0.305 |
| RRIRGRPPRLPRPRPRPYRAPRP | -0.233 |
| RRIRVRPPRLPRPRPRPRFRPRP | 0.193 |
| RRIRTRPPRLPRPRPRPDLWPRP | 0.27 |
| RRIRNRPPRLPRPRPRPHFPPRP | -0.186 |
| RRIRDRPPRLPRPRPRPECQPRP | -0.00804 |
| RRIRRRPPRLPRPRPRPCSKPRP | -0.123 |
| RRIRIRPPRLPRPRPRPAQAPRP | 0.2 |
| RRIRWRPPRLPRPRPRPINIPRP | -1.2 |
| RRIRERPPRLPRPRPRPRQLPRP | -0.0334 |
| RRIRVRPPRLPRPRPRPPSNPRP | -0.034 |
| RRIRTRPPRLPRPRPRPDARPRP | 0.0965 |
| RRIRIRPPRLPRPRPRPMGWPRP | 0.237 |
| RRIRYRPPRLPRPRPRPKYWPRP | -0.726 |
| RRIRPRPPRLPRPRPRPWLTPRP | -0.123 |
| RRIRARPPRLPRPRPRPRIPPRP | 0.0568 |
| RRIRIRPPRLPRPRPRPMSSPRP | -0.215 |

| Sequence | shrunken log2 fold change |
| --- | --- |
| RRIRKRPPRLPRPRPRPGPEPRP | 1.1 |
| RRIRCRPPRLPRPRPRPQWAPRP | 0.0425 |
| RRIRDRPPRLPRPRPRPEMWPRP | 2.04 |
| RRIRRRPPRLPRPRPRPIKFPRP | -0.202 |
| RRIRLRPPRLPRPRPRPTCCPRP | -0.013 |
| RRIRRRPPRLPRPRPRPYSGPRP | -0.000826 |
| RRIRLRPPRLPRPRPRPVDLPRP | -0.418 |
| RRIRNRPPRLPRPRPRPLMTPRP | 0.0149 |
| RRIRVRPPRLPRPRPRPLVHPRP | -0.145 |
| RRIRLRPPRLPRPRPRPDAFPRP | 0.0575 |
| RRIRGRPPRLPRPRPRPPMVPRP | 0.277 |
| RRIRWRPPRLPRPRPRPCRFPRP | 0.0225 |
| RRIRPRPPRLPRPRPRPMSDPRP | -0.195 |
| RRIRERPPRLPRPRPRPVKNPRP | 0.0428 |
| RRIRKRPPRLPRPRPRPNGTPRP | -0.0678 |
| RRIRSRPPRLPRPRPRPYQIPRP | -0.106 |
| RRIRERPPRLPRPRPRPIGVPRP | 0.0489 |
| RRIRRRPPRLPRPRPRPFEMPRP | 0.0983 |
| RRIRNRPPRLPRPRPRPLKPPRP | 0.203 |
| RRIRYRPPRLPRPRPRPPHDPRP | -0.383 |
| RRIRCRPPRLPRPRPRPKNAPRP | -0.103 |
| RRIRRRPPRLPRPRPRPVIPPRP | 0.272 |
| RRIRWRPPRLPRPRPRPYGIPRP | -0.00133 |
| RRIRCRPPRLPRPRPRPKRQPRP | 0.13 |
| RRIRRRPPRLPRPRPRPPDRPRP | 0.21 |

| Sequence | shrunken log2 fold change |
| --- | --- |
| RRIRTRPPRLPRPRPRPVADPRP | 0.0403 |
| RRIRYRPPRLPRPRPRPLHMPRP | -0.116 |
| RRIRPRPPRLPRPRPRPKSAPRP | 0.532 |
| RRIRTRPPRLPRPRPRPQVPPRP | 0.101 |
| RRIRQRPPRLPRPRPRPPDAPRP | 0.228 |
| RRIRERPPRLPRPRPRPFINPRP | -0.991 |
| RRIRYRPPRLPRPRPRPRKWPRP | 0.149 |
| RRIRQRPPRLPRPRPRPHRMPRP | -0.373 |
| RRIRHRPPRLPRPRPRPAKSPRP | 0.076 |
| RRIRARPPRLPRPRPRPWMKPRP | -0.172 |
| RRIRERPPRLPRPRPRPPGGPRP | 0.56 |
| RRIRLRPPRLPRPRPRPGNMPRP | -0.157 |
| RRIRPRPPRLPRPRPRPDDYPRP | 0.0238 |
| RRIRGRPPRLPRPRPRPKCDPRP | 0.812 |
| RRIRVRPPRLPRPRPRPKILPRP | -0.0923 |
| RRIRERPPRLPRPRPRPMLEPRP | 0.282 |
| RRIRLRPPRLPRPRPRPKYQPRP | -0.141 |
| RRIRKRPPRLPRPRPRPFYVPRP | -0.0997 |
| RRIRARPPRLPRPRPRPHLVPRP | 0.0104 |
| RRIRNRPPRLPRPRPRPGYGPRP | -0.0142 |
| RRIRNRPPRLPRPRPRPEDAPRP | -0.00133 |
| RRIRPRPPRLPRPRPRPPIMPRP | -0.0982 |
| RRIRDRPPRLPRPRPRPTCNPRP | 0.13 |
| RRIRCRPPRLPRPRPRPTTNPRP | 0.0115 |
| RRIRARPPRLPRPRPRPAAVPRP | 0.8 |
